Here are results for one substance from paper PMC3795040.

The target in the test is HA70 of BoNT/A (full-length, residues M1–N626) (Clostridium botulinum strain 62A (BoNT/A1-producing)). Kind of test: ITC; […] ([…]) […] (400 µM) […]; 23°C; 50 mM Tris pH 7.6, 100 mM NaCl; […]. For orientation: In ITC the heat of successive injections is recorded.

For “synthetic nLoop peptide of NTNHA (from UniProt Q45914 116-148)”, the Kd (in general, the concentration at which binding is half-saturated) was determined as 340 nM and the stoichiometry N (nLoop per HA70 trimer) amounted to 1.
